Laboratory results reported in patent publication US20220378925A1 (ORIONIS BIOSCIENCES, published 2022).

Target: PD-L1 endogenously expressed on HL116 cells (human, UniProt Q9NZQ7 19-290)
Assay: cell-based or functional assay

Chain of PD-L1 endogenously expressed on HL116 cells (Q9NZQ7 19-290): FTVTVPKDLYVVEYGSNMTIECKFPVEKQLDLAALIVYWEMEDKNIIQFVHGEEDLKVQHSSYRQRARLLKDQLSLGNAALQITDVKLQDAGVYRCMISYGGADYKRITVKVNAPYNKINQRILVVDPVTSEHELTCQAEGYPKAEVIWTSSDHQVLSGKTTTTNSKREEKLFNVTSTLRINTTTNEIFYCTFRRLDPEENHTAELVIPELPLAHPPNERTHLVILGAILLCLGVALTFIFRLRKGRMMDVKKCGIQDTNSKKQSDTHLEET

B1: 2LIG99-hIFNα1, linker-cysteine 12 kDa PEGylated (other)
chain: DVQLVESGGGLVQPGGSLRLSCTASGTIFSINRMDWFRQAPGKQRELVALITSGGTPAYADSAKGRFTISRDNSKNTVYLQMNSLRPEDTAVYYCHVSSGVYNYWGQGTLVTVSSGGSGGSGGSGGSGGSGGSGGSGGSGGSGGCGGSGGSGGSGGSGGSGGSGGSGGSGGSGGSCDLPETHSLDNRRTLMLLAQMSRISPSSCLMDRHDFGFPQEEFDGNQFQKAPAISVLHELIQQIFNLFTTKDSSAAWDEDLLDKFSTELYQQLNDLEACVMQEERVGETPLMNADSILAVKKYFRRITLYLTEKKYSPCAWEVVRAEIMRSLSLSTNLQERLRRKEHHHHHH
modifications: 12 kDa mPEG-Maleimide on the cysteine in the middle of the linker (about 75% monoPEGylated material)
Question: Which “decrease of biological activity after linker-cysteine PEGylation, HL116 reporter-assay” value does the source give for B1 here?
Answer: 10 fold

B2: 2LIG99-hIFNα1, N-terminal 20 kDa PEGylated (other)
chain: B1 chain
modifications: 20 kDa mPEG-aldehyde on the N-terminal amine (mainly mono-PEGylated)
Question: For B2, which “reduction in biological activity after N-terminal 20 kD PEGylation, HL116 reporter-assay” value is on record?
Answer: ~20 fold

B3: 2LIG99-hIFNα1, amine PEGylated (polyPEGylated, mPEG20K-Succinimidyl Carboxymethyl Ester) (other)
chain: B1 chain
modifications: several 20 kDa PEG groups on the N-terminal amine and/or lysine residues (mainly polyPEGylated, sites not stated)
Question: Which “drop of biological activity upon amine (poly)PEGylation, HL116 reporter-assay” value does the source give for B3 here?
Answer: ~20000 fold
